Source: the DeepSol protein solubility set

Experiment: soluble on expression in E. coli; label from the status in PepcDB or PDB records

| Sequence | soluble on expression in E. coli |
| --- | --- |
| MPYIILEDQTRLYYETHGSGTPILFIHGVLMSGQFFHKQFSVLSANYQCIRLDLRGHGESDKVLHGHTISQYARDIREFLNAMELDHVVLAGWSMGAFVVWDYLNQFGNDNIQAAVIIDQSASDYQWEGWEHGPFDFDGLKTAMHAIQTDPLPFYESFIQNMFAEPPAETETEWMLAEILKQPAAISSTILFNQTAADYRGTLQNINVPALLCFGEDKKFFSTAAGEHLRSNIPNATLVTFPKSSHCPFLEEPDAFNSTLLSFLDGVIGKS | not soluble |
| MDTTEFDEIRPYNDEELPQIFEELIADPAFQKAATDAIPNVPFELLAQKIRACKSKLDFQETFCYGILWKIAADHTDGLTLDHTAVPDKSKAYTYVSNHRDIILDSGFLSILLIDQGMDTVEIAIGDNLLVYPWIKKLVRVNKSFIVQRALTMRQMLESSARMSRYMHYTINEKNQSIWIAQREGRAKDSNDRTQDSVLKMLAMGGEGDLIDRLMEMNIAPLAISYEYDPCDFLKAQEFQLKRDIEGYKKTTQDDLISMQTGLFGYKGKVHFQTAPCINDRLAQLDRSLPKQELFSSISACIDQRIHSNYRIYSGNYVAYDLLKGTSEFAGHYTPEEKQRFVTYIEQQLGKIKIPNKDEDFLRGKLLLMYANPLVNYLAACQ | not soluble |
| MGSDKIHHHHHHMEHAQMSEKTTNELEKLREHIDSVDQQLLHLLRKRLDLVAQVGGVKHAAGVPIYAPQREASMLAKRREEAAKMNVSPQLIEDILRRLMRESYLNEKDVGFKQVKTDLGHVVIVGGQGKLGGLFAQMLSLSGYQVKSLDKDDWQQADAIFDGAGMVIVTVPISITCELIRDKLTSLPSSCILADLTSIKEKPLEAMLASHQGPVVGLHPMFGPDVGSLAKQVVVVCHGRGREQYEWLLEQIGIWGARLVEADAQQHDKAMQLVQAMRHFSSFVYGLNLYREAADIDNLLQFSSPIYRLELAMVGRLFAQSPELYADIIFAQQESLTAIGDYLDNYAQALELLKRGDRQGFIREFEEVAAWFGDFAPQFQRESRAMLQSVNDMKTG | not soluble |
| MSKLFGNKSQRDLKEVKPFVDKIKVAYGEIERLSDDDLRGRTAILRQKIQDYVKDERAEIDKLKVEVEGKDLDEREEIWAQVDKLEKEILDKMEVVLDEILPEAFAIIKDTARRFAQNETIRVKATDLDRDLAINHDFVSIEGDTAVYQNHWVAGGNEILW | not soluble |
| YPNVEVFGEVPIQVVNAEPLGMHSNVMEAMFTAITRAKKNVYIETPYFIPTECLLQAIQTASMSGIDVRLVMPKRSDNDFVQYASNSYVEKLLRNKVRVYQYVNGFTHSKLMIVDDELVVVGSANMDIRSLELLFETNLFIYDKKVAQTVRDIYHTDMNNSKELNLRDWLQR | not soluble |
| MNIIWQLGTCNIRQVLAEVPEPKPPYTTLASVFKNLERKHYIKPFREGKTYHYRICISREEYATRTMHRMVDNYFTGSYKHLVQFFAAGSDISVKDLREVIDMIEKGEESE | not soluble |
| SNTQAERSIIGMIDMFHKYTRRDDKIDKPSLLTMMKENFPNFLSACDKKGTNYLADVFEKKDKNEDKKIDFSEFLSLLGDIATDYHKQSHGAAPCSGGSQ | soluble |
| MKADIARCAYMHAHGGFYFDTDYKLLRPLDAQVLSQHCVLPVEEGAPGQEDFKIGNAVFGSEPGHPFWRAFIEHIFTAHAPETLQDHREIPMISGPRGLTRFYNAHGGQFADILFPPRDAFHPDRTWFGLGHRGGKSAVGSHLCWASWRGKSPRRALTNYLRRKLNAVPILEHHHHHH | not soluble |
| METTWDLTPLFPGLESPEFQRAWEGLKGRIGELKGLLEREAPLPEVLAALDAFLEEATPLRAYLYARYSADTRDEAALAKLSELEILFLDFQRLRPRLTRYLALKDPEEAGPHRLLVEEAKEEALHMMPEGEEVLAAELSLSGRAAWDKLHESLTSQITAVVDGEEMPITKVRNLYFHPEEEVRKKAYEAELKAWEAHEVPLAFALNGVKGEASVLNRRRGYRDDLEPTLHENRITRKALKAMQEAVGESLPLFRRYFLLKARALGKERLDWWDLFAPLGRGRRWSLEEARAFIPAKLAALVPNAAKVAEMAFHERWMDLLPRKGKVGGAYCMARGGGKSLILANYEESFESVSTLAHELGHAYHNFALKEAPASLRRVPMTLAETASIMNETLVVEAALKEASPEEGLLILDAYLQGAAQVVVDIHSRFLFESWVFQRRKARELSPREFKELMLKAQEEAYGEALATRHPYMWAVKGHYYGADFYNYPYTFGLLFGLAVYQEAKEDPGFAGRYEALLAESGRYRAKELALRFGFDLESVDFWRRGIRVLEEKVAQLERMISP | soluble |
| NKDMALTVRGNFTHAENEVIYWEQSGVNYPYQSNSGVPYKVQRGLIALGLFKDEDDIKSSPKQTFMDNYRPGDIKYKDVNGDGKIDKDDVVPLNYSAVPFIQYGFALDWNYKAFRVSILFEGVSKVQYFQGGRGFYPFLNESRGNLLEMVADPRNRWIPREYAEVNGIDPALAENPNAKFPRLTYGENKNNNQESTFWLADGKYLRLKNVDVSYRFTNNWLKSRVGVESATLSLIGENLHVWDKVKLFDPSQASGNGAEYPLQRMYTLQLNLTF | not soluble |
| MSMLQRPGYPNLSVKLFDSYDAWSNNRFVELAATITTLTMRDSLYGRNEGMLQFYDSKNIHTKMDGNEIIQISVANANDINNVKTRIYGCKHFSVSVDSKGDNIIAIELGTIHSIENLKFGRPFFPDAGESIKEMLGVIYQDRTLLTPAINAINAYVPDIPWTSTFENYLSYVREVALAVGSDKFVFVWQDIMGVNMMDYDMMINQEPYPMIVGEPSLIGQFIQELKYPLAYDFVWLTKSNPHKRDPMKNATIYAHSFLDSSIPMITTGKGENSIVVSRSGAYSEMTYRNGYEEAIRLQTMAQYDGYAKCSTIGNFNLTPGVKIIFNDSKNQFKTEFYVDEVIHELSNNNSVTHLYMFTNATKLETIDPVKVKNEFKSDTTTEESSSSNKQ | soluble |
| MELKKIVEAILFSSSEPVDARELRKITGKDKVEILNAIGELIKDYESRDTSIEIIKVGEKYLMRVKPQYAEYVERFTVREFDRGTLRTLAVIALKQPITLAKVAKIRGNKCYEHVKKLQERGLVKAEKKGRSTILTTTEEFATYFGLDSAEPEKIKEALKGYLEAE | soluble |
| MCPILWTRNGSHCYYFSMEKKDWNSSLKFCADKGSHLLTFPDNQGVKLFGEYLGQDFYWIGLRNIDGWRWEGGPALSLRILTNSLIQRCGAIHRNGLQASSCEVALQWICKKVLY | soluble |
| MSLFKIRMPETVAEGTRLALRAFSLVVAVDERGGIGDGRSIPWNVPEDMKFFRDVTTKLRGKNVKPSPAKRNAVVMGRKTWDSIPPKFRPLPGRLNVVLSSTLTTQHLLDGLPDEEKRNLHADSIVAVNGGLEQALQLLASPNYTPSIETVYCIGGGSVYAEALRPPCVHLLQAIYRTTIRASESSCSVFFRVPESGTEAAAGIEWQRETISEELTSANGNETKYYFEKLIPRNREEEQYLSLVDRIIREGNVKHDRTGVGTLSIFGAQMRFSLRNNRLPLLTTKRVFWRGVCEELLWFLRGETYAKKLSDKGVHIWDDNGSRAFLDSRGLTEYEEMDLGPVYGFQWRHFGAAYTHHDANYDGQGVDQIKAIVETLKTNPDDRRMLFTAWNPSALPRMALPPCHLLAQFYVSNGELSCMLYQRSCDMGLGVPFNIASYALLTILIAKATGLRPGELVHTLGDAHVYSNHVEPCNEQLKRVPRAFPYLVFRREREFLEDYEEGDMEVIDYAPYPPISMKMAV | soluble |
| MSLIIQVSPAGSMDLLSQLEVERLKKTASSDLYQLYRNCSLAVLNSGSHTDNSKELLDKYKNFDITVMRRERGIKLELANPPEHAFVDGQIIKGIQEHLFSVLRDIVYVNMHLADSQRLNLTNATHITNLVFGILRNAGALIPGATPNLVVCWGGHSINEVEYQYTREVGHELGLRELNICTGCGPGAMEGPMKGAAVGHAKQRYSEYRYLGLTEPSIIAAEPPNPIVNELVIMPDIEKRLEAFVRMAHGIIIFPGGPGTAEELLYILGIMMHPENADQPMPIVLTGPKQSEAYFRSLDKFITDTLGEAARKHYSIAIDNPAEAARIMSNAMPLVRQHRKDKEDAYSFNWSLKIEPEFQLPFEPNHESMANLDLHLNQRPEVLAANLRRAFSGVVAGNVKAEGIREIERHGPFEMHGDPVLMKKMDQLLNDFVAQNRMKLPGGSAYEPCYKIVTEGHHHHHH | soluble |
| MVCLESDTCQSSQLLNTSFKRGFFSNLYPMIKRTAVERCPLFSVETGFYLKAPGILFVIERKKKQMNHETIQKLQFTTILKEVQTRAIGEYSKERLAKMVPATRLETVQSRLTETTEARLIIDSGQHVPFMGLSQITRLLQQVKKGLILTPNELIEVADFLRSSQRIQKFFEKNQYQTPRLFSYSQHLADFRAIEEQIYTKIHNQKVATDASRQLRKIRRQINECQQEIETKVTKFLRNKNNQLYIQENMMVKKGEHYTVPIKASYKNKVSGTIIEQSNKGQTVFIEPVAISKLNEQLTLLKAEETAEEYQILAELTGLINEQERLVDQAVDTMTTLDIIFARGKYSREIGGITPKVNKEERLRIVQGKHPLLLEHAVPLTFSLGAEYRGLVITGANAGGKTVVLKTVGLLTVMTQFGLQIPAQAGTEIPVLDEIFVDIGDQQNLENALSTFSGHMKNIAEMLRNVKRHTLVLLDEIGSGTEPNEGAGLAIAIMETMYQKGALVVATTHYGEIKRFAQEHDDFVPAAMAFDRETLTPKYQLKIGEVGDSQALWIARKMKMEPQLIEKAAHYIQRKEYPTNRSLFKPLKAKETTFATFVEETHRYQKGDRVLLTETQQIGLVFTDEGEQEIQVFVNDKIENVPRRRLKLQAKAQDLYPQDYDLESLFTDFHERKKLKDIERGSKKAQKQLRKEAEKRAARRDK | not soluble |
| MSLTTNPVKHTDEHIGALYFSDLPGISNLTCTANYIGGKFWTTAHHCVEGRSRFVGFIEQSDGQYAGIEHVYTKSSDYDIALIKVGSGIDAEQFSLTRSRPAVGKMLEVVGFAVVNPFSSRATMEVTNSNTVANYPMSNLYYKDVFSAKPAGSFPYVISGGDSGAAVWSGETMYGIASGSNGSTKNLAANVGPHVSWIEQTMQNNSNSSPYEILQAFRGGLATSYPKYNQIRDLVDSSEGHHHHHH | not soluble |
| QPAQSGAFLVDQSQLTQSSILIGHQGGQLSNPDYPELSVMNGVINGFGGRLFNEIRSRQGLAYSVYGVWSPRYDYDGQFIAGGSTRTEATVPFITAMKGEIKRLQTELITPAELAYAKDSILNSFVFNFEDPGQTLSRLMRYEYYGYPEDFIFQYQREVEATTIEDVQRVAQTYLKPEQLTVLVVGN | not soluble |
| GSMPRVVPDQRSKFENEEFFRKLSRECEIKYTGFRDRPHEERQTRFQNACRDGRSEIAFVATGTNLSLQFFPASWQGEQRQTPSREYVDLEREAGKVYLKAPMILNGVCVIWKGWIDLHRLDGMGCLEFDEERAQQEDALAQQ | soluble |
| MMKQALRVAFGFLILWASVLHAEVRIVIDSGVDSGRPIGVVPFQWAGPGAAPEDIGGIVAADLRNSGKFNPLDRARLPQQPGSAQEVQPAAWSALGIDAVVVGQVTPNPDGSYNVAYQLVDTGGAPGTVLAQNSYKVNKQWLRYAGHTASDEVFEKLTGIKGAFRTRIAYVVQTNGGQFPYELRVSDYDGYNQFVVHRSPQPLMSPAWSPDGSKLAYVTFESGRSALVIQTLANGAVRQVASFPRHNGAPAFSPDGSKLAFALSKTGSLNLYVMDLASGQIRQVTDGRSNNTEPTWFPDSQNLAFTSDQAGRPQVYKVNINGGAPQRITWEGSQNQDADVSSDGKFMVMVSSNGGQQHIAKQDLATGGVQVLSSTFLDETPSLAPNGTMVIYSSSQGMGSVLNLVSTDGRFKARLPATDGQVKFPAWSPYLLEHHHHHH | soluble |
